Laboratory results reported in publication PMC4678828, “Binding dynamics of a monomeric SSB protein to DNA: a single-molecule multi-process approach”.
Positions count from the first letter of the chain named.

Assays:
A647-SsoSSB A114C [1] = target: T1, A647-SsoSSB A114C (Sulfolobus solfataricus, UniProt Q97W73 1-148, A114C); assay: single-molecule FRET kinetics; first monomer; kon 0.032 nM-1 s-1, koff ~1.75 s-1; 10 mM KCl; 50 mM Tris-HCl pH 7.6, 10 mM KCl, 5% glycerol, 0.1 mg/ml BSA, 5-50 nM DNA, 20 C (PIFE also 65 C); conditions: protein: recombinant; chain copies: 2; label: 5' biotin, 3' Cy3; single strand
T1 sequence: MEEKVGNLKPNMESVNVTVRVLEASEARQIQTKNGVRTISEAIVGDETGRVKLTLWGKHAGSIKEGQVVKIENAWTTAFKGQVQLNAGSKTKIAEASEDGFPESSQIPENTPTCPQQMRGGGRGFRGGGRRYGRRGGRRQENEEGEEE

A647-SsoSSB A114C [2] = target: T1, A647-SsoSSB A114C; assay: single-molecule FRET/PIFE/quenching kinetics; second monomer; kon 0.16 nM-1 s-1, koff 0.31 s-1; 10 mM KCl; 50 mM Tris-HCl pH 7.6, 10 mM KCl, 5% glycerol, 0.1 mg/ml BSA, 5-50 nM DNA, 20 C (PIFE also 65 C); conditions: protein: recombinant; chain copies: 2; label: 5' biotin, 3' Cy3; single strand
A647-SsoSSB A114C [3] = target: T1, A647-SsoSSB A114C; assay: single-molecule FRET/PIFE/quenching kinetics; S4 pathway, two monomers in one step; kon 0.006 nM-1 s-1, koff 0.33 s-1; 50 mM Tris-HCl pH 7.6, 10 mM KCl, 5% glycerol, 0.1 mg/ml BSA, 5-50 nM DNA, 20 C (PIFE also 65 C); conditions: protein: recombinant; chain copies: 2; label: 5' biotin, 3' Cy3; single strand
SsoSSB wild-type [4] = target: T2, SsoSSB wild-type (Sulfolobus solfataricus (Methods print …, UniProt Q97W73 1-148)); assay: tryptophan fluorescence quenching; Hill model; 50 mM Tris-HCl pH 7.6, 10 mM KCl, 5% glycerol, 0.1 mg/ml BSA, 5-50 nM DNA, 20 C (PIFE also 65 C); conditions: protein: recombinant; chain copies: 2; single strand
T2 sequence: T1 sequence with C114A

A647-SsoSSB A114C [5] = target: T1, A647-SsoSSB A114C; assay: ensemble FRET; Hill model, 1.8 ± 0.2; 50 mM Tris-HCl pH 7.6, 10 mM KCl, 5% glycerol, 0.1 mg/ml BSA, 5-50 nM DNA, 20 C (PIFE also 65 C); conditions: protein: recombinant; chain copies: 2; label: 3' Cy3 (amino); single strand
A647-SsoSSB A114C [6] = target: T1, A647-SsoSSB A114C; assay: ensemble FRET; two-site model, first monomer; 50 mM Tris-HCl pH 7.6, 10 mM KCl, 5% glycerol, 0.1 mg/ml BSA, 5-50 nM DNA, 20 C (PIFE also 65 C); conditions: protein: recombinant; chain copies: 2; label: 3' Cy3 (amino); single strand
A647-SsoSSB A114C [7] = target: T1, A647-SsoSSB A114C; assay: ensemble FRET; two-site model, second monomer; 50 mM Tris-HCl pH 7.6, 10 mM KCl, 5% glycerol, 0.1 mg/ml BSA, 5-50 nM DNA, 20 C (PIFE also 65 C); conditions: protein: recombinant; chain copies: 2; label: 3' Cy3 (amino); single strand
SsoSSB wild-type [8] = target: T2, SsoSSB wild-type; assay: fluorescence titration (PIFE); 65 C; Hill 1.4 ± 0.2; 50 mM Tris-HCl pH 7.6, 10 mM KCl, 5% glycerol, 0.1 mg/ml BSA, 5-50 nM DNA, 20 C (PIFE also 65 C); conditions: protein: recombinant; chain copies: 2; label: 3' Cy3 (amino); single strand
SsoSSB wild-type [9] = target: T2, SsoSSB wild-type; assay: fluorescence titration (PIFE); 20 C, 10 mM KCl; Hill 1.8 ± 0.2; 50 mM Tris-HCl pH 7.6, 10 mM KCl, 5% glycerol, 0.1 mg/ml BSA, 5-50 nM DNA, 20 C (PIFE also 65 C); conditions: protein: recombinant; chain copies: 2; label: 3' Cy3 (amino); single strand
A647-SsoSSB A114C [10] = target: T1, A647-SsoSSB A114C; assay: fluorescence self-quenching titration; 10 mM KCl; Hill 1.4 ± 0.2 in text; Fig 2 legend gives 20 ± 1 nM, Hill 1.3; 50 mM Tris-HCl pH 7.6, 10 mM KCl, 5% glycerol, 0.1 mg/ml BSA, 5-50 nM DNA, 20 C (PIFE also 65 C); conditions: protein: recombinant; chain copies: 2; single strand

B1: BidC12Cy3 (ssDNA)
DNA: CCCCCCCCCCCC
Kd (A647-SsoSSB A114C [1]): 0.054 ± 0.002 µM | Kd (A647-SsoSSB A114C [2]): ~0.002 µM | Kd (A647-SsoSSB A114C [3]): ~0.057 µM

B2: dT6 (ssDNA)
DNA: TTTTTT
Kd (SsoSSB wild-type [4]): 0.143 ± 0.095 µM

B3: dC12Cy3 (ssDNA)
DNA: CCCCCCCCCCCC
Kd (A647-SsoSSB A114C [5]): 0.024 ± 0.002 µM | Kd (A647-SsoSSB A114C [6]): 0.037 ± 0.004 µM | Kd (A647-SsoSSB A114C [7]): 0.0028 ± 0.001 µM | Kd (SsoSSB wild-type [8]): 0.015 ± 0.001 µM | Kd (SsoSSB wild-type [9]): 0.009 ± 0.001 µM

B4: dC12 (ssDNA)
DNA: CCCCCCCCCCCC
Kd (A647-SsoSSB A114C [10]): 0.022 ± 0.001 µM
